Assay results published in publication doi:10.1101/2025.11.28.691101, “Interaction and co-phase separation of SARS-CoV-2 nucleocapsid protein and human hnRNPA1 and its implications for viral life cycle” (bioRxiv, 2025).

B1: N-terminally GST-tagged human hnRNPA1 (natural protein, UniProt P09651-2 1-320, looked up)
chain: MSKSESPKEPEQLRKLFIGGLSFETTDESLRSHFEQWGTLTDCVVMRDPNTKRSRGFGFVTYATVEEVDAAMNARPHKVDGRVVEPKRAVSREDSQRPGAHLTVKKIFVGGIKEDTEEHHLRDYFEQYGKIEVIEIMTDRGSGKKRGFAFVTFDDHDSVDKIVIQKYHTVNGHNCEVRKALSKQEMASASSSQRGRSGSGNFGGGRGGGFGGNDNFGRGGNFSGRGGFGGSRGGGGYGGSGDGYNGFGNDGSNFGGGGSYNDFGNYNNQSSNFGPMKGGNFGGRSSGPYGGGGQYFAKPRNQGGYGGSSSSSSYGSGRRF
notes: human hnRNPA1; Prey of the Ni-NTA pull-down; The general purification method names only Ni-NTA and SEC; also called GST-hnRNPA1; source: E. coli, purified; not shown: GST, N-terminal, kept
B2: human hnRNPA1, full-length (residues 1 to 320), fluorescently labelled (natural protein, UniProt P09651-2 1-320, looked up)
chain: MSKSESPKEPEQLRKLFIGGLSFETTDESLRSHFEQWGTLTDCVVMRDPNTKRSRGFGFVTYATVEEVDAAMNARPHKVDGRVVEPKRAVSREDSQRPGAHLTVKKIFVGGIKEDTEEHHLRDYFEQYGKIEVIEIMTDRGSGKKRGFAFVTFDDHDSVDKIVIQKYHTVNGHNCEVRKALSKQEMASASSSQRGRSGSGNFGGGRGGGFGGNDNFGRGGNFSGRGGFGGSRGGGGYGGSGDGYNGFGNDGSNFGGGGSYNDFGNYNNQSSNFGPMKGGNFGGRSSGPYGGGGQYFAKPRNQGGYGGSSSSSSYGSGRRF
modifications: RED-NHS 2nd generation dye
notes: human hnRNPA1, full-length, residues 1 to 320 (320-residue form); Labelled protein of the MST titrations (5 nM); also called full length hnRNPA1; source: E. coli Rosetta (DE3), purified (Ni-NTA, SEC)

Assays:
[1] = target: T1, SARS-CoV-2 nucleocapsid (N) protein, full-length, N-terminally 6xHis-tagged (SARS-CoV-2, UniProt P0DTC9 1-419); experiment: pull-down; conditions: both partners purified
T1 construct: SARS-CoV-2 nucleocapsid (N) protein, full-length, residues 1 to 419 (419 amino acids); also called 6XHis-N protein; FL N protein; not shown: His6, N-terminal, kept

[2] = target: T1, SARS-CoV-2 nucleocapsid (N) protein, …; experiment: MST; RED-NHS-labelled hnRNPA1 (5 nM) titrated with N protein, NTD, CTD or LKR+CTD; 16 two-fold dilutions from 100 μM; Monolith NT.115; single-site binding model; triplicates; conditions: both partners purified

Row | Binder | binding result [1] | Kd [2]
1 | B1 | binds | –
2 | B2 | – | ~180 nM
